Measurements taken from article PMC6542941.
Changes are numbered by the printed parent chain.

Legend:
[1] = target: T1, human acid-sensing ion channel 1a variant hASIC1a-D212 (human) (UniProt P78348)
T1 sequence: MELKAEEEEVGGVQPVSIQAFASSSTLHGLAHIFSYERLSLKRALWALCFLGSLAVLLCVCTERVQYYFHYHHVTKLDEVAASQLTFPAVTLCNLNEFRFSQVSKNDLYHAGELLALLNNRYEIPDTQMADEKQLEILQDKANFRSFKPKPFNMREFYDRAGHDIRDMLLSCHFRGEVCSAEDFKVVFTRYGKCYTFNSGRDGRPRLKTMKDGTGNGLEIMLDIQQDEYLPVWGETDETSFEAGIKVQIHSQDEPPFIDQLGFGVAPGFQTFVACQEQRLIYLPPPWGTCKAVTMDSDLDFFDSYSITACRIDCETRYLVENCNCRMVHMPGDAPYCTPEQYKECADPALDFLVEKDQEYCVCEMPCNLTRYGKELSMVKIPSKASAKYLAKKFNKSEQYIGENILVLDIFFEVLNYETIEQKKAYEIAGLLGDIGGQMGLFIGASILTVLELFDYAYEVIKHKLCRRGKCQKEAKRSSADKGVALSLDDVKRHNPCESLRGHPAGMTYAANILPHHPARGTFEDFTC

[2] = target: T2, human acid-sensing ion channel 1a wild type hASIC1a-G212 (human) (UniProt P78348)
T2 sequence: T1 sequence with D212G

human ASIC2a (human) = human ASIC2a (human) (UniProt Q16515)
UniProt Q16515, sequence (Q16515 whole entry): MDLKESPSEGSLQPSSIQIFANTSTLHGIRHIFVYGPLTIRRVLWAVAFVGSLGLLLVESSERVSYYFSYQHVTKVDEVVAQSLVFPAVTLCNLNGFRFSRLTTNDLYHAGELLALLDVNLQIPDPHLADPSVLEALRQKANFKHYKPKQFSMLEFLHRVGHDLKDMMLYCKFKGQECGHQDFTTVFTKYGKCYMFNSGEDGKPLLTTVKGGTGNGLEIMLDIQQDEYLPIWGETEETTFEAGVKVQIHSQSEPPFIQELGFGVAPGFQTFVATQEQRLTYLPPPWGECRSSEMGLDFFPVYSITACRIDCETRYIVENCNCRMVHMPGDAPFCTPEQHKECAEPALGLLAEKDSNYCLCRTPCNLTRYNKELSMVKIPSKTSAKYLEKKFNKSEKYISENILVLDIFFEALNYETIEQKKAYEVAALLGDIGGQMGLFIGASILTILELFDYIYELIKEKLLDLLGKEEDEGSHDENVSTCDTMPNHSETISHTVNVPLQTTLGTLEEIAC

**Q.** How did the IC50 of inhibition of the pH5.0-induced current, whole-cell patch-clamp of CHO cells; PcTx1 pre-applied 60 s in the conditioning pH 7.4 solution [1] turn out when “Psalmotoxin1 (from UniProt P60514 1-40) (peptide)” was run?
**A.** 1.19 nM

**Q.** What about the IC50 of inhibition of the pH5.0-induced current, whole-cell patch-clamp of CHO cells; PcTx1 pre-applied 60 s in the conditioning pH 7.4 solution [2] of the same molecule?
**A.** 1.83 nM

B1: Mambalgin1 (peptide)
chain: LKCYQHGKVVTCHRDMKFCYHNTGMPFRNLKLILQGCSSSCSETENNKCCSTDRCNK
**Q.** B1 was tested. Which IC50 of inhibition of the pH5.0-induced current, whole-cell patch-clamp of CHO cells; Mambalgin1 pre-applied 60 s in the conditioning pH 7.4 solution [1] did it give?
**A.** 21.7 nM

**Q.** What about the IC50 of inhibition of the pH5.0-induced current, whole-cell patch-clamp of CHO cells; Mambalgin1 pre-applied 60 s in the conditioning pH 7.4 solution [2] of the same molecule?
**A.** 10.5 nM

B2: human acid-sensing ion channel 1a variant hASIC1a-D212 (receptor)
chain: T1 sequence
**Q.** Which IpH5.8/IpH4.0 current ratio of co-transfected CHO cells, whole-cell patch-clamp (human ASIC2a (human)) does the source give for B2 here?
**A.** 0.43

B3: human acid-sensing ion channel 1a wild type hASIC1a-G212 (receptor)
chain: T1 sequence with D212G
**Q.** B3 was tested. Which IpH5.8/IpH4.0 current ratio of co-transfected CHO cells, whole-cell patch-clamp (human ASIC2a (human)) did it give?
**A.** 0.41
